Changes are numbered by the printed parent chain.
B1: M13 phage pKK138 displaying MICA α3 domain with loop 1 insert 5.1sp and loop 3 insert 5.3sp (designed binder)
chain: TVPPMVNVTSGGSGGGSVTRGDTFTQSSGGSGGGVTCRASGFYPWNITLSWRQDGVSLSHDTQQWGDVLPDGNGTYQTWVATRISGGSGGGSHLARGDDLTYSGGSGGGCYMEHSGNHSTHPVPSGK
notes: also called 1-5.1sp/3-5.3sp; not shown: C-terminal portion of M13 gene III protein, fused at codon position 198
B2: M13 phage pKK139 displaying MICA α3 domain with loop 1 insert 5.1sp and loop 3 insert 5.1spNH (designed binder)
chain: B1 chain with H93V, L94T, A95R, R96G, G97D, D98T, D99F, L100T, T101Q, Y102S
notes: also called 1-5.1sp/3-5.1spNH; not shown: C-terminal portion of M13 gene III protein, fused at codon position 198
B3: soluble MICA generated from pKK128 (loop 1 extended 5.1sp, loop 3 extended 3.2sp) (designed binder)
chain: HHHHHHEPHSLRYNLTVLSWDGSVQSGFLTEVHLDGQPFLRCDRQKCRAKPQGQWAEDVLGNKTWDRETRDLTGNGKDLRMTLAHIKDQKEGLHSLQEIRVCEIHEDNSTRSSQHFYYDGELFLSQNLETEEWTMPQSSRAQTLAMNVRNFLKEDAMKTKTHYHAMHADCLQELRRYLKSGVVLRRTVPPMVNVTSGGSGGGSVTRGDTFTQSSGGSGGGVTCRASGFYPWNITLSWRQDGVSLSHDTQQWGDVLPDGNGTYQTWVATRISGGSGGGSTSRGDHPRTQSGGSGGGCYMEHSGNHSTHPVPSGK
notes: From pKK115 (from pKK46: His6, Glu125); secreted by 293T cells; also called 1-5.1sp/3-3.2sp
B4: soluble MICA generated from pKK130 (loop 1 extended 5.1sp, loop 3 extended 5.3sp) (designed binder)
chain: B3 chain with T279H, S280L, R281A, G282R, D283G, H284D, P285D, R286L, Q288Y
notes: From pKK115 (from pKK46: His6, Glu125); secreted by 293T cells; also called 1-5.1sp/3-5.3sp
B5: M13 phage pKK102 displaying MICA α3 domain with loop 1 insert 5.1sp (designed binder)
chain: TVPPMVNVTSGGSGGGSVTRGDTFTQSSGGSGGGVTCRASGFYPWNITLSWRQDGVSLSHDTQQWGDVLPDGNGTYQTWVATRICQGEEQRFTCYMEHSGNHSTHPVPSGK
notes: also called 1-5.1sp; not shown: C-terminal portion of M13 gene III protein, fused at codon position 198
B6: M13 phage pKK103 displaying MICA α3 domain with loop 1 insert 5.3sp (designed binder)
chain: B5 chain with V18H, T19L, R20A, G21R, D22G, T23D, F24D, T25L, Q26T, S27Y
notes: also called 1-5.3sp; not shown: C-terminal portion of M13 gene III protein, fused at codon position 198
B7: soluble MICA generated by pSW273 (wild type loops, negative control) (ligand)
chain: HHHHHHEPHSLRYNLTVLSWDGSVQSGFLTEVHLDGQPFLRCDRQKCRAKPQGQWAEDVLGNKTWDRETRDLTGNGKDLRMTLAHIKDQKEGLHSLQEIRVCEIHEDNSTRSSQHFYYDGELFLSQNLETEEWTMPQSSRAQTLAMNVRNFLKEDAMKTKTHYHAMHADCLQELRRYLKSGVVLRRTVPPMVNVTRSEASEGNITVTCRASGFYPWNITLSWRQDGVSLSHDTQQWGDVLPDGNGTYQTWVATRICQGEEQRFTCYMEHSGNHSTHPVPSGK
notes: Secreted by 293T cells; six His between signal peptide and residue 1; made from pSW267 (Glu125); also called WT

Tests used:
[1] = molecular target: T1, integrin αVβ3 (UniProt P06756 31-992; P05106 27-718); test: phage ELISA, coated integrin, anti-M13-HRP
T1 construct: Coated on the ELISA plate
Protocol: (§1) The ELISA assays of the integrin target-binding of M13 phages displaying α3 domains with binding peptide inserts grafted into more than one loop were performed as follows. After the respective integrins were adhered to the bottoms of the wells of the ELISA plate, the wells were washed and blocked. Each sample (100 μl) of phage preparation was added to wells containing αVβ3 or αVβ5, incubated and washed. The phages captured by the integrins were detected by HRP-conjugated antibody to the M13 phage coat developed with Ultra TMB-ELISA substrate and the optical densities read.

[2] = molecular target: T2, integrin αVβ5 (UniProt P06756 31-992; P18084 24-719); test: phage ELISA, coated integrin, anti-M13-HRP
T2 construct: Coated on the ELISA plate
Protocol: as §1

[3] = molecular target: T1, integrin αVβ3; test: ELISA, coated integrin, anti-MICA-HRP
Protocol: (§2) ELISA assays of the integrin target-binding of soluble MICA molecules generated from pKK128-131 were performed as follows. After the respective integrins were adhered to the bottoms of the wells of the ELISA plate, the wells were washed and blocked. Each sample (100 μl) of culture supernatant was added to wells containing αVβ3 or αVβ5, incubated and washed. The soluble MICA molecules captured by the integrins were detected by HRP-conjugated antibody to human MICA developed with Ultra TMB-ELISA substrate and the optical densities read. The quantity of soluble MICA in each sample was determined by the MICA-specific ELISA.

[4] = molecular target: T2, integrin αVβ5; test: ELISA, coated integrin, anti-MICA-HRP
Protocol: as §2

[5] = molecular target: T1, integrin αVβ3; test: phage ELISA, coated integrin, anti-M13-HRP; remark: listed apart in the source
Protocol: (§3) The phage vectors were independently transformed into NEBαF′tet competent E. coli cells. Phages produced by the transformed cells were tittered and their concentrations adjusted by dilution to 10¹³ per ml. The ability of the soluble MICA molecules in each of the phage preparations was assayed by an ELISA using the intended target proteins, integrin αVβ3 or αVβ5, as capture agents on the ELISA plate. After the respective integrins were adhered to the bottoms of the wells of the ELISA plate, the wells were washed and blocked, as well known in the field. Each sample (100 μl) of phage preparation was added to wells containing αVβ3 or αVβ5, incubated and washed. The phages captured by the integrins were detected by HRP-conjugated antibody to the M13 phage coat developed with Ultra TMB-ELISA substrate and the optical densities read.

[6] = molecular target: T2, integrin αVβ5; test: phage ELISA, coated integrin, anti-M13-HRP; remark: listed apart in the source
Protocol: as §3

[7] = molecular target: T1, integrin αVβ3; test: ELISA, coated integrin, anti-MICA-HRP; remark: listed apart in the source
Protocol: (§4) The ability of the soluble MICA molecules in each of the concentrated supernatants to bind target molecules was assayed by an ELISA using the intended target proteins, integrin αVβ3 or αVβ5, as capture agents on the ELISA plate. After the respective integrins were adhered to the bottoms of the wells of the ELISA plate, the wells were washed and blocked, as well known in the field. Each sample (100 μl) of soluble MICA produced and secreted by 293T cells was added to wells containing αVβ3 or αVβ5, incubated and washed. The soluble MICA molecules captured by the integrins were detected by HRP-conjugated antibody to human MICA developed with Ultra TMB-ELISA substrate and the optical densities read. The quantity of soluble MICA in each sample was determined by the MICA-specific ELISA. […] The ELISA signal from a non-binding, negative control MICA (generated by pSW273) was subtracted from each integrin binding signal.

[8] = molecular target: T2, integrin αVβ5; test: ELISA, coated integrin, anti-MICA-HRP; remark: listed apart in the source
Protocol: as §4

T1 sequence (P06756 31-992, chain 1 of 2): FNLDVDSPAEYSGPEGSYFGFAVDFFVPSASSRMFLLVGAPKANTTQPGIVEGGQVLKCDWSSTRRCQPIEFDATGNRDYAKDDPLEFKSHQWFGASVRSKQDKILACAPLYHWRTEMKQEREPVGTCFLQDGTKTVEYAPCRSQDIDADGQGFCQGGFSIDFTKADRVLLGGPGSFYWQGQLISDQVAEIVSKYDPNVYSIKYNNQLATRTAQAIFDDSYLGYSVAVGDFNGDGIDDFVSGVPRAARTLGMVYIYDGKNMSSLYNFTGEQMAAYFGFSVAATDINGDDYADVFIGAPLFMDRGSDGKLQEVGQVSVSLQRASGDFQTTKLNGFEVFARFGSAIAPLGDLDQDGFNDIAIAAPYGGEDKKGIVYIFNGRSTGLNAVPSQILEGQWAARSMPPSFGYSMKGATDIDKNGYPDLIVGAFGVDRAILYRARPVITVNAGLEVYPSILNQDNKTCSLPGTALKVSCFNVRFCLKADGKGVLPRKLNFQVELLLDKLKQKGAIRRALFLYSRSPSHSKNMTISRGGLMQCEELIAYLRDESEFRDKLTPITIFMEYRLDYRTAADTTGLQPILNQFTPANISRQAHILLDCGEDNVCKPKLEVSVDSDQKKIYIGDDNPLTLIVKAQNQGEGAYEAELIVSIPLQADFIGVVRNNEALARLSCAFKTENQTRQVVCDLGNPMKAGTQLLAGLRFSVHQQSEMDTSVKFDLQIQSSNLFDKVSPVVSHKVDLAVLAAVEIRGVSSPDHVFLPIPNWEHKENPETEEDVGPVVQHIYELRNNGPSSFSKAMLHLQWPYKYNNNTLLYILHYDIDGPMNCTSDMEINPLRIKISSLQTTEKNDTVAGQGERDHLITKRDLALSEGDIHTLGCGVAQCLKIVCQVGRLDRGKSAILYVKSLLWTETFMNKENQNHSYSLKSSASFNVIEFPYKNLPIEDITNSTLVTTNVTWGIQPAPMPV
T1 sequence (P05106 27-718, chain 2 of 2): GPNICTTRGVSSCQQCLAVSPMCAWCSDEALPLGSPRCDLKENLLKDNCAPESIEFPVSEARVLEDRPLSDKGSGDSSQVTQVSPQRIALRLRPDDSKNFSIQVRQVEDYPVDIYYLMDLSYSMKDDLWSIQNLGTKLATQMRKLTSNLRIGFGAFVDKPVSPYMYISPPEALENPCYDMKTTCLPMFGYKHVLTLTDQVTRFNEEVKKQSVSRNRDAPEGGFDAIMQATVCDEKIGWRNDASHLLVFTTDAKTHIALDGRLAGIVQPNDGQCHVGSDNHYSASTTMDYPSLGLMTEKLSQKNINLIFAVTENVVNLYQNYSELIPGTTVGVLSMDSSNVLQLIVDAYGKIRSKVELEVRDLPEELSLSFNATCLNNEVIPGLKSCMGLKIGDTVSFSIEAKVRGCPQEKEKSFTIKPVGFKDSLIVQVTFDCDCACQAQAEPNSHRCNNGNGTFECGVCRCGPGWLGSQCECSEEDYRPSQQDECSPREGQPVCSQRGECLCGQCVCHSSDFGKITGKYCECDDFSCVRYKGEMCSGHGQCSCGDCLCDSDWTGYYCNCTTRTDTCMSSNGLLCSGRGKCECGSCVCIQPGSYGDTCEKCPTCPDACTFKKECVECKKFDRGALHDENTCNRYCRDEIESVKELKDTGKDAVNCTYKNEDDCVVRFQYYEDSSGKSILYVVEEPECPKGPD
T2 sequence (P06756 31-992, chain 1 of 2): as the sequence (P06756 31-992, chain 1 of 2) above
T2 sequence (P18084 24-719, chain 2 of 2): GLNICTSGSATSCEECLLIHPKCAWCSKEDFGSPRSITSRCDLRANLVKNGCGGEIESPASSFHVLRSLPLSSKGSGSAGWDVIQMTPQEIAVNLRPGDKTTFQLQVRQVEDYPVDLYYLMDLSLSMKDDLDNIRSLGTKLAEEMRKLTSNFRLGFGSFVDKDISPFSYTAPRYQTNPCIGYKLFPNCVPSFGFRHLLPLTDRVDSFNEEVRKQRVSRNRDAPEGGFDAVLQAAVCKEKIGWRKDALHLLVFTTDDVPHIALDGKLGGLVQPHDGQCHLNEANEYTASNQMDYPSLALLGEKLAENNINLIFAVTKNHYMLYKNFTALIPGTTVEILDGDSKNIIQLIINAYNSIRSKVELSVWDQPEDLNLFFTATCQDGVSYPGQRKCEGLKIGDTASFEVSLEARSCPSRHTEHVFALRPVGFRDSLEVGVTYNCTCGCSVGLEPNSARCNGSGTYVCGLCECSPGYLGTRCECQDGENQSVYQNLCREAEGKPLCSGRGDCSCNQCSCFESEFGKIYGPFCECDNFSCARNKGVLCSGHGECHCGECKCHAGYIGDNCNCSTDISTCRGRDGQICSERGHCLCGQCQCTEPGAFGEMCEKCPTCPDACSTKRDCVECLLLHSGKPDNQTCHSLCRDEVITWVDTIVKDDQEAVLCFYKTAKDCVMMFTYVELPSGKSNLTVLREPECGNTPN

Binder	αvβ3 signal [1] [OD]	αvβ5 signal [2] [OD]	αvβ3 signal [3] [OD]	αvβ3 signal/ng [3] [signal/ng MICA]	αvβ5 signal [4] [OD]	αvβ5 signal/ng [4] [signal/ng MICA]	αvβ3 signal [5] [OD]	αvβ5 signal [6] [OD]	binding result [7]	binding result [8]
B1	0.886	2.75	–	–	–	–	–	–	–	–
B2	2.48	5.36	–	–	–	–	–	–	–	–
B3	–	–	0.811	22.9	1	28.3	–	–	–	–
B4	–	–	0.606	19.6	0.832	26.9	–	–	–	–
B5	1.45	1.5	–	–	–	–	1.02	0.771	–	–
B6	0.587	0.814	–	–	–	–	0.688	0.491	–	–
B7	–	–	0.099	6.73	0.1	6.8	–	–	no binding	no binding

Reference: patent US20150165065A1 (AVIDBIOTICS, published 2015)
